Experimental data from patent US20260008817A1, “CYCLIC PEPTIDE OR SALT THEREOF, AND USES THEREOF” (FUJIFILM Corporation, priority 2023, published 2026).
Blank lines part the entries; values can stand above or below the substance they belong to. Positions of bridges follow the written chain, without caps; N, C: chain ends. No end group written: not given here. COCH2 = acetyl group that carries the bridge

Biological target: T1, Recombinant Human FGFR1 alpha (IIIc) Fc Chimera Protein (Homo sapiens, UniProt P11362)
T1 construct: purchased R&D systems 658-FR-050
Assay: ELISA binding affinity of enzymatically synthesized peptide to FGFR
Details: ELISA luminescence signal at 10 nmol/L peptide, SEQ ID NO: 239 standardized to 1; enzyme synthesis product
Outline: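 Cell-free PUREfrex-translated cyclic peptides (Myc/HiBiT-tagged, quantified by HiBiT luminescence) bound 3 h at room temperature to immobilized FGFR1α(IIIc)-Fc, detected with anti-Myc and chemiluminescence. FGFR-specific signal at 10 nmol/L normalized to a reference cyclic peptide and graded A–D.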

T1 sequence (P11362 with tags, fused parts or gaps limits assumed): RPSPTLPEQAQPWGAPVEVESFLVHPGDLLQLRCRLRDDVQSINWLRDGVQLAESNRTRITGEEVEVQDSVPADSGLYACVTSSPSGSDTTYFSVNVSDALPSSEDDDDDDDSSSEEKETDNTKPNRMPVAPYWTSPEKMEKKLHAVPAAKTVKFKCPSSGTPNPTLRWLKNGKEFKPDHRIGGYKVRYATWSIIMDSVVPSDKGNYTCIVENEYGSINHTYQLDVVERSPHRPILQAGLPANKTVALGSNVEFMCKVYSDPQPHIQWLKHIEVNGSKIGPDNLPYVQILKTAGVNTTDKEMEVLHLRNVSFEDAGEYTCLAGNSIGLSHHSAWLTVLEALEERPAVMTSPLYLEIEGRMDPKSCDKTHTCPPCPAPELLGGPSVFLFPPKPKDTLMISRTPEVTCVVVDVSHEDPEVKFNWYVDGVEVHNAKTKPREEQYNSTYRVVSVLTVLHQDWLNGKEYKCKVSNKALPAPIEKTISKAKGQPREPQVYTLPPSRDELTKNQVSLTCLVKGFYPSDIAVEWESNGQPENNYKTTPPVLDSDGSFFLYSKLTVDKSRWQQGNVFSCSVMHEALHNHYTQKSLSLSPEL

Substance: 223 (ICVYTFDAHAHSLHAALRK(COCH2)I; thioether 2-19 (inferred)) [compound 223]
Evaluation result of binding affinity to FGFR: A (0.7 or more)

Substance: 224 (ICVYTFDAHAHSLHAALHK(COCH2)I; thioether 2-19 (inferred)) [compound 224]
Evaluation result of binding affinity to FGFR: A (0.7 or more)

Substance: 226 (ICVYTFDAHAHSLHAALTK(COCH2)L; thioether 2-19 (inferred)) [compound 226]
Evaluation result of binding affinity to FGFR: C (0.1 or more and less than 0.5)

Substance: 227 (ICVYTFDAHAHSLHAALTK(COCH2)V; thioether 2-19 (inferred)) [compound 227]
Evaluation result of binding affinity to FGFR: A (0.7 or more)

Substance: 230 (ICVYTFDAHAHSLHAALTK(COCH2)W; thioether 2-19 (inferred)) [compound 230]
Evaluation result of binding affinity to FGFR: A (0.7 or more)

Substance: 231 (ICVYTFDAHAHSLHAALTK(COCH2)N; thioether 2-19 (inferred)) [compound 231]
Evaluation result of binding affinity to FGFR: C (0.1 or more and less than 0.5)

Substance: 234 (ICVYTFDAHAHSLHAALTK(COCH2)T; thioether 2-19 (inferred)) [compound 234]
Evaluation result of binding affinity to FGFR: C (0.1 or more and less than 0.5)

Substance: 236 (ICVYTFDAHAHSLHAALTK(COCH2)H; thioether 2-19 (inferred)) [compound 236]
Evaluation result of binding affinity to FGFR: A (0.7 or more)

Substance: 238 (VCIWVFNRFAHTLKESLTK(COCH2)V; thioether 2-19 (inferred)) [compound 238]
Evaluation result of binding affinity to FGFR: C (0.1 or more and less than 0.5)

Substance: 239 (ACVWTFDRHAQEISQALHKV; not fully specified (residue 19, bridges); also: cyclic peptide, ring not given here) [compound 239]
Evaluation result of binding affinity to FGFR: A (0.7 or more)

Substance: 240 (ACVYLFNWRATSYGKSLIK(COCH2)W; thioether 2-19 (inferred)) [compound 240]
Evaluation result of binding affinity to FGFR: A (0.7 or more)

Substance: 243 (QCYLPSWFYQKARLLFQYIK(COCH2)S; thioether 2-20 (inferred)) [compound 243]
Evaluation result of binding affinity to FGFR: C (0.1 or more and less than 0.5)

Substance: 244 (DCTQGKILTYSQALFSFGVK(COCH2)I; thioether 2-20 (inferred)) [compound 244]
Evaluation result of binding affinity to FGFR: A (0.7 or more)

Substance: 245 (NCVYYAKPVFAHANRVWTYIK(COCH2)I; thioether 2-21 (inferred)) [compound 245]
Evaluation result of binding affinity to FGFR: A (0.7 or more)

Substance: 246 (PCIYTFDQSAIKYKIGFVLRK(COCH2)V; thioether 2-21 (inferred)) [compound 246]
Evaluation result of binding affinity to FGFR: C (0.1 or more and less than 0.5)

Substance: 248 (QCWLQGPYWSDIKIYIYQHDK(COCH2)Y; thioether 2-21 (inferred)) [compound 248]
Evaluation result of binding affinity to FGFR: C (0.1 or more and less than 0.5)

Substance: 249 (VCVRPIFIFSFRAPFNAVDWK(COCH2)I; thioether 2-21 (inferred)) [compound 249]
Evaluation result of binding affinity to FGFR: C (0.1 or more and less than 0.5)

Substance: 252 (RCVYSFDPARYPYHLKK(COCH2)V; thioether 2-17 (inferred)) [compound 252]
Evaluation result of binding affinity to FGFR: A (0.7 or more)

Substance: 253 (TCFSPGQIWIWTHLVTAIRNK(COCH2)T; thioether 2-21 (inferred)) [compound 253]
Evaluation result of binding affinity to FGFR: B (0.5 or more and less than 0.7)

Substance: 257 (FCAWVVDYQELHQFWSIVQK(COCH2)I; thioether 2-20 (inferred)) [compound 257]
Evaluation result of binding affinity to FGFR: C (0.1 or more and less than 0.5)

Substance: 258 (VCVRPIFIFSFRAPFNAVDWK(COCH2)N; thioether 2-21 (inferred)) [compound 258]
Evaluation result of binding affinity to FGFR: A (0.7 or more)

Substance: 262 (WCNFANVWTFNKS; Description of Artificial Sequence: Cyclic peptide) [compound 262]
Evaluation result of binding affinity to FGFR: C (0.1 or more and less than 0.5)

Substance: 264 (VCIFTWDRVHWPVKV; Description of Artificial Sequence: Cyclic peptide) [compound 264]
Evaluation result of binding affinity to FGFR: C (0.1 or more and less than 0.5)

Substance: 266 (DCIWQWHPWSGYTKL; Description of Artificial Sequence: Cyclic peptide) [compound 266]
Evaluation result of binding affinity to FGFR: A (0.7 or more)

Substance: 267 (DCIWQWTPTKSFQKL; Description of Artificial Sequence: Cyclic peptide) [compound 267]
Evaluation result of binding affinity to FGFR: A (0.7 or more)

Substance: 268 (SCIYQWDYVHWPIKL; Description of Artificial Sequence: Cyclic peptide) [compound 268]
Evaluation result of binding affinity to FGFR: C (0.1 or more and less than 0.5)

Substance: 269 (HCLWQWTPQTHFVKL; Description of Artificial Sequence: Cyclic peptide) [compound 269]
Evaluation result of binding affinity to FGFR: A (0.7 or more)

Substance: 270 (QCWWTLQVWSYPFHKH; Description of Artificial Sequence: Cyclic peptide) [compound 270]
Evaluation result of binding affinity to FGFR: C (0.1 or more and less than 0.5)

Substance: 271 (LCQLGVYTYVALFYKF; Description of Artificial Sequence: Cyclic peptide) [compound 271]
Evaluation result of binding affinity to FGFR: C (0.1 or more and less than 0.5)

Other lines, results leading:

Evaluation result of binding affinity to FGFR: A (0.7 or more)
Substance: 220 (ICVYTFDAHAHSLHAALQK(COCH2)I; thioether 2-19 (inferred)) [compound 220]

Evaluation result of binding affinity to FGFR: C (0.1 or more and less than 0.5)
Substance: 221 (ICVYTFDAHAHSLHAALSK(COCH2)I; thioether 2-19 (inferred)) [compound 221]

Evaluation result of binding affinity to FGFR: C (0.1 or more and less than 0.5)
Substance: 222 (ICVYTFDAHAHSLHAALEK(COCH2)I; thioether 2-19 (inferred)) [compound 222]

Evaluation result of binding affinity to FGFR: B (0.5 or more and less than 0.7)
Substance: 225 (ICVYTFDAHAHSLHAALTK(COCH2)A; thioether 2-19 (inferred)) [compound 225]

Evaluation result of binding affinity to FGFR: C (0.1 or more and less than 0.5)
Substance: 228 (ICVYTFDAHAHSLHAALTK(COCH2)F; thioether 2-19 (inferred)) [compound 228]

Evaluation result of binding affinity to FGFR: C (0.1 or more and less than 0.5)
Substance: 229 (ICVYTFDAHAHSLHAALTK(COCH2)Y; thioether 2-19 (inferred)) [compound 229]

Evaluation result of binding affinity to FGFR: A (0.7 or more)
Substance: 232 (ICVYTFDAHAHSLHAALTK(COCH2)Q; thioether 2-19 (inferred)) [compound 232]

Evaluation result of binding affinity to FGFR: C (0.1 or more and less than 0.5)
Substance: 233 (ICVYTFDAHAHSLHAALTK(COCH2)S; thioether 2-19 (inferred)) [compound 233]

Evaluation result of binding affinity to FGFR: A (0.7 or more)
Substance: 235 (ICVYTFDAHAHSLHAALTK(COCH2)R; thioether 2-19 (inferred)) [compound 235]

Evaluation result of binding affinity to FGFR: A (0.7 or more)
Substance: 237 (VCIYTFNHLAQTYWQSLNK(COCH2)V; thioether 2-19 (inferred)) [compound 237]

Evaluation result of binding affinity to FGFR: C (0.1 or more and less than 0.5)
Substance: 241 (HCKLYSYPLWYWPKWVFQTK(COCH2)E; thioether 2-20 (inferred)) [compound 241]

Evaluation result of binding affinity to FGFR: B (0.5 or more and less than 0.7)
Substance: 242 (ACGVHQWEIGEWFGYRYYYK(COCH2)P; thioether 2-20 (inferred)) [compound 242]

Evaluation result of binding affinity to FGFR: C (0.1 or more and less than 0.5)
Substance: 251 (TCWTAWQWFGHWVPFVAK(COCH2)T; thioether 2-18 (inferred)) [compound 251]

Evaluation result of binding affinity to FGFR: C (0.1 or more and less than 0.5)
Substance: 254 (LCVYTFNWQQKFGHHLTK(COCH2)I; thioether 2-18 (inferred)) [compound 254]

Evaluation result of binding affinity to FGFR: C (0.1 or more and less than 0.5)
Substance: 255 (FCTLWQFGNLVWTHESPFIK(COCH2)Q; thioether 2-20 (inferred)) [compound 255]

Evaluation result of binding affinity to FGFR: A (0.7 or more)
Substance: 256 (DCVYQYDRNAHYWDTALVK(COCH2)V; thioether 2-19 (inferred)) [compound 256]

Evaluation result of binding affinity to FGFR: C (0.1 or more and less than 0.5)
Substance: 259 (TCNIWQFNPAARWGFHLVYK(COCH2)Y; thioether 2-20 (inferred)) [compound 259]

Evaluation result of binding affinity to FGFR: C (0.1 or more and less than 0.5)
Substance: 260 (ICREVIVGSLYTWDGNRGFFKV; Description of Artificial Sequence: Cyclic peptide) [compound 260]

Evaluation result of binding affinity to FGFR: C (0.1 or more and less than 0.5)
Substance: 261 (LCYINLFTHTKV; Description of Artificial Sequence: Cyclic peptide) [compound 261]

Evaluation result of binding affinity to FGFR: C (0.1 or more and less than 0.5)
Substance: 263 (QCYHIIVYTFVKP; Description of Artificial Sequence: Cyclic peptide) [compound 263]

Evaluation result of binding affinity to FGFR: B (0.5 or more and less than 0.7)
Substance: 265 (VCIYTWDRQSWPVKL; Description of Artificial Sequence: Cyclic peptide) [compound 265]
